According to patent publication US20210002623A1, “AMINOPEPTIDASE AND ITS USES” (Centre national de la recherche scientifique, priority 2017, published 2021):

Columns and labels:
[1] = Hydrolytic activity on synthetic chromogenic and fluorogenic monoacyl compounds; assay type: biochemical; settings: for cleavage of tryptophan from substrate Nt end: FIG. 4; for amidolytic activity against aromatic amino acids: phenylalanine and tyrosine, MjTET compared with PhTET2 (FIG. 4)
Method: The hydrolytic activity of MjTET on synthetic chromogenic and fluorogenic compounds was determined by using different aminoacyl-pNAs and aminoacyl-AMCs through the following procedure. Reactions were initiated by addition of 4 μg/mL of enzyme to a pre-warmed mixture containing 5 mM of the chromogenic or fluorogenic compound in 50 mM CHES, 150 mM KCl and 0.1 mM CoCl2, pH 8.2, in a total volume of 400 μl. Incubation was performed at 75° C. for 5 min. The quantity of liberated pNA was evaluated by measuring the absorbance at λ=405 nm in a JASCO V-630 spectrophotometer, and for AMC by measuring the fluorescence using excitation and emission wavelengths of 360 and 440 nm, respectively in a JASCO FP-8500 spectrofluorometer. Three replicates and two enzyme blanks were assayed for each experimental point. Additional enzymatic studies were performed in order to investigate MjTET capacities to hydrolyze longer substrates (H-Trp-Phe-Tyr-Ser(PO3H2)-Pro-Arg-pNA (SEQ ID NO: 3), H-Met-Trp-Ala-Glu-Asn-Lys (SEQ ID NO:4), H-Tyr-Asp-Thr-Ser-Ile-Val-Gln-Arg (SEQ ID NO:5), H-Asp-Ala-Tyr-Pro-Ser (SEQ ID NO: 6) and H-Glu-Gly-Ile. 2 μg/ml (final concentration) of MjTET were added to a pre-warmed mixture of 0.75 mM peptide, 50 mM CHES, 150 mM KCl, 0.1 mM CoCl2, pH 8.5. To avoid water evaporation, 20 μl of mineral oil were added on the top of the total volume. The reaction incubation was done at 85° C. during 6 min. Aliquot of 80 μl was then removed and added to 220 μl of 2% acetonitrile (ACN), 0.1% trifluoroacetic acid (TFA). Proteins were removed by centrifugation at 13,000 rpm during 15 min. 100 μl of the supernatant were retrieved and injected on Nova-Pak C18 column, (4 μm, 3.9×300 mm, (Waters)) in a HPLC purifier system (PerkinElmer), equilibrated with 2% ACN, 0.1% TFA. […] Chromatographic runs were carried out at room temperature.

[2] = test system: peptide YFLMNENRYTSWNSE (SEQ ID NO: 2); experiment: Time necessary to hydrolyse 50% of a 15 amino acid peptide at different temperatures; assay type: biochemical
Method: In order to evaluate the effect of the temperature on the activity of MjTET, the inventors evaluated the relative amount of intact peptides further to an incubation with the TET protein at different temperatures.
The inventors have measured the relative amount of intact peptide further to an incubation with MjTET.
MjTET activity was measured on the following peptide: YFLMNENRYTSWNSE (SEQ ID NO: 2). The inventors evaluated the time necessary to hydrolyse 50% of the peptide at different tempertaures

[3] = Effect of pH on MjTET activity; assay type: biochemical; settings: pH 6 and 10.5; Leu-pNA, 75° C.
Method: The effect of pH on MjTET activity was determined in pH range varying from 6 to 11. The buffers used were: PIPES, pH 6-7.5; CHES, pH 8.2-10 and CAPS, pH 10.5-11. All buffers were used at 50 mM concentration in presence of 150 mM KCl, 0.1 mM CoCl2, 4 μg/mL of MjTET and 5 mM Leu-pNA as substrate. The given pH values are at 75° C. Incubation was done at 75° C. for 5 min and the quantity of produced pNA was evaluated by measuring the absorbance at 405 nm.

[4] = Effect of temperature on MjTET activity; assay type: biochemical; settings: Leu-pNA
Method: Different temperatures ranging from 20 to 90° C. were tested on MjTET activity. Incubation was done in 50 mM CHES, 150 mM KCl, 0.1 mM CoCl2, pH 8.5 in presence of 4 μg/mL of protein and 5 mM Leu-pNA for 5 min. Absorbance of released pNA was measured at 405 nm.

[5] = Effect of temperature on MjTET stability (remaining aminopeptidase activity after incubation at 85° C.); assay type: physicochemical; settings: incubated at 85° C.; remaining activity on Leu-pNA
Method: The effect of temperature on MjTET stability was assayed by incubating the enzyme (160 μg/ml) at 85° C. Aliquot of 10 μl was taken at different time intervals, and the remaining aminopeptidase activity was assayed against 5 mM Leu-pNA in 390 μl of 50 mM CHES, 150 mM KCl, 0.1 mM CoCl2, pH 8.5 incubated at 85° C. for 5 min. Enzymatic stability of MjTET was evaluated by measuring the quantity of produced pNA at 405 nm.

[6] = test system: H-Trp-Phe-Tyr-Ser(PO3H2)-Pro-Arg-pNA; experiment: Hydrolysis of longer peptide substrates followed by reverse phase HPLC; assay type: biochemical; settings: after 5 minutes, 85° C.
Method: The hydrolytic activity of MjTET on synthetic chromogenic and fluorogenic compounds was determined by using different aminoacyl-pNAs and aminoacyl-AMCs through the following procedure. Reactions were initiated by addition of 4 μg/mL of enzyme to a pre-warmed mixture containing 5 mM of the chromogenic or fluorogenic compound in 50 mM CHES, 150 mM KCl and 0.1 mM CoCl2, pH 8.2, in a total volume of 400 μl. Incubation was performed at 75° C. for 5 min. The quantity of liberated pNA was evaluated by measuring the absorbance at λ=405 nm in a JASCO V-630 spectrophotometer, and for AMC by measuring the fluorescence using excitation and emission wavelengths of 360 and 440 nm, respectively in a JASCO FP-8500 spectrofluorometer. Three replicates and two enzyme blanks were assayed for each experimental point. Additional enzymatic studies were performed in order to investigate MjTET capacities to hydrolyze longer substrates (H-Trp-Phe-Tyr-Ser(PO3H2)-Pro-Arg-pNA (SEQ ID NO: 3), H-Met-Trp-Ala-Glu-Asn-Lys (SEQ ID NO:4), H-Tyr-Asp-Thr-Ser-Ile-Val-Gln-Arg (SEQ ID NO:5), H-Asp-Ala-Tyr-Pro-Ser (SEQ ID NO: 6) and H-Glu-Gly-Ile. 2 μg/ml (final concentration) of MjTET were added to a pre-warmed mixture of 0.75 mM peptide, 50 mM CHES, 150 mM KCl, 0.1 mM CoCl2, pH 8.5. To avoid water evaporation, 20 μl of mineral oil were added on the top of the total volume. […]

| Molecule | hydrolytic activity toward N-terminal phenylalanine residues [1] | cleavage of tryptophan from substrate Nt end [1] | amidolytic activity against aromatic amino acids [1] | Time necessary to hydrolyse 50% of the peptide ([2]; 40 ° C.) | percentage of LAP activity maintained [3] | temperature of maximal LAP activity ([4]; pH 8.5, 0.1 mM CoCl2, 20 to 90° C. tested) [°C] | LAP activity in mesophilic conditions ([4]; under 50° C.) | half-life [5] | amidolytic activity ([1]; against Leu-pNA, 75° C., pH 8.2) | amidolytic activity ([1]; against hydrophobic residues such as phenylalanine, methionine and tyrosine) | amidolytic activity ([1]; aspartate, glutamate, cysteine and proline monoacyl substrates) | amidolytic activity ([1]; blocked residues and D-stereo configuration: Ac-Leu-pNA and D-Leu-pNA) | amidolytic activity ([1]; polar and positively charged residues) | hydrolysis of the original peptide substrate [6] | Time necessary to hydrolyse 50% of the peptide ([2]; 20 ° C.) [h] | Time necessary to hydrolyse 50% of the peptide ([2]; 30 ° C.) [h] | Time necessary to hydrolyse 50% of the peptide ([2]; 50 ° C.) [h] | Time necessary to hydrolyse 50% of the peptide ([2]; 60 ° C.) [h] | Time necessary to hydrolyse 50% of the peptide ([2]; 70 ° C.) [h] | Time necessary to hydrolyse 50% of the peptide ([2]; 80 ° C.) [h] |
| --- | --- | --- | --- | --- | --- | --- | --- | --- | --- | --- | --- | --- | --- | --- | --- | --- | --- | --- | --- | --- |
| PhTET2: leucyl aminopeptidase TET complex of Pyrococcus horikoshii with broad activity against neutral amino acids (protein) MEVRNMVDYELLKKVVEAPGVSGYEFLGIRDVVIEEIKDYVDEVKVDKLGNVIAHKKGEGPKVMIAAHMDQIGLMVTHIEKNGFLRVAPIGGVDPKTLIAQRFKVWIDKGKFIYGVGASVPPHIQKPEDRKKAPDWDQIFIDIGAESKEEAEDMGVKIGTVITWDGRLERLGKHRFVSIAFDDRIAVYTILEVAKQLKDAKADVYFVATVQEEVGLRGARTSAFGIEPDYGFAIDVTIAADIPGTPEHKQVTHLGKGTAIKIMDRSVICHPTIVRWLEELAKKHEIPYQLEILLGGGTDAGAIHLTKAGVPTGALSVPARYIHSNTEVVDERDVDATVELMTKALENIHELKI | devoid of hydrolytic activity | unable to cleave | weak activity | 0.5 h |  |  |  |  |  |  |  |  |  |  |  |  |  |  |  |  |
| MjTET: TET aminopeptidase (M42 family, dodecameric) from Methanocaldococcus jannaschii comprising SEQ ID NO: 1 (protein, listed as Methanococcus jannaschii) MSVVEYLKKLSKLHGISGREDSVREFMKKELEKYCDSVEIDNFGNLIAKRGNKGKKIMIAAHMDEIGLMVKYIDDNGFLKFTKIGGIYDPTILNQKVVVHGSKGDLIGVLGSKPPHRMKEEEKTKIIKYEDMFIDIGAESREEAIEMGVNIGTWVSFLSEVYDLGKNRLTGKAFDDRVGCAVLLEVMKRLSEEDIDCQVYAVGTVQEEVGLKGARVSAFKINPDVAIALDVTIAGDHPGIKKEDAPVDLGKGPVVGIVDASGRGLIAHPKVLDMIKAVSEKYKIDVQWEVGEGGTTDATAIHLTREGIPTGVISVPARYIHTPVEVIDKRDLEKTVELVYNCIKEVNNFF |  | unable to cleave | more efficient | 3,9 h | more than 50% | 85 | No activity was detected | eight | optimal amidolytic activity | significant amidolytic activities | no activity was detected | no activity was detected | Reduced activities | almost hydrolyzed | 75 | 55 | 1.3 | 1 | 0.6 | 0.25 |
